To fix the notation:
T1: NY-ESO-1 peptide on HLA-B*07:02 (human)
T1 peptide: SLLMWITQC

T2: NY-ESO-1 peptide on HLA-A*02:01 (human (alpha3 domain mouse))
T2 peptide: SLLMWITQC

T3: NY-ESO-1 peptide on HLA-A*02:01 (human)
T3 peptide: SLLMWITQC

B1: TCR18168 (TCR, V domains shown)
Valpha: QSVAQPEDQVNVAEGNPLTVKCTYSVSGNPYLFWYVQYPNRGLQFLLKYITGDNLVKGSYGFEAEFNKSQTSFHLKKPSALVSDSALYFCAVRELYSGAGSYQLTFGKGTKLSVIP
Vbeta: QKPSRDICQRGTSLTIQCQVDSQVTMMFWYRQQPGQSLTLIATANQGSEATYESGFVIDKFPISRPNLTFSTLTVSNMSPEDSSIYLCSVGGAGVTDTQYFGPGTRLTVL
B2: TCR0050 (TCR, V domains shown)
Valpha: QSVAQPEDQVNVAEGNPLTVKCTYSVSGNPYLFWYVQYPNRGLQFLLKYITGDNLVKGSYGFEAEFNKSQTSFHLKKPSALVSDSALYFCAVRELYSVAVRYQLTFGKGTKLSVIP
Vbeta: QKPSRDICQRGTSLTIQCQVDSQVTMMFWYRQQPGQSLTLIATANQGSEATYESGFVIDKFPISRPNLTFSTLTVSNMSPEDSSIYLCSVGGAGVTDTQYFGPGTRLTVL
B3: TCR0068 (TCR, V domains shown)
Valpha: QSVAQPEDQVNVAEGNPLTVKCTYSVSGNPYLFWYVQYPNRGLQFLLKYITGDNLVKGSYGFEAEFNKSQTSFHLKKPSALVSDSALYFCAVRELYSPRLMWQLTFGKGTKLSVIP
Vbeta: QKPSRDICQRGTSLTIQCQVDSQVTMMFWYRQQPGQSLTLIATANQGSEATYESGFVIDKFPISRPNLTFSTLTVSNMSPEDSSIYLCSVGGAGVTDTQYFGPGTRLTVL
B4: TCR0028 (TCR, V domains shown)
Valpha: QSVAQPEDQVNVAEGNPLTVKCTYSVSGNPYLFWYVQYPNRGLQFLLKYITGDNLVKGSYGFEAEFNKSQTSFHLKKPSALVSDSALYFCAVRDMANGAGSYQLTFGKGTKLSVIP
Vbeta: QKPSRDICQRGTSLTIQCQVDSQVTMMFWYRQQPGQSLTLIATANQGSEATYESGFVIDKFPISRPNLTFSTLTVSNMSPEDSSIYLCSVGGAGVTDTQYFGPGTRLTVL
B5: TCR0010 (TCR, V domains shown)
Valpha: QSVAQPEDQVNVAEGNPLTVKCTYSVSGNPYLFWYVQYPNRGLQFLLKYITGDNLVKGSYGFEAEFNKSQTSFHLKKPSALVSDSALYFCAVRDSFEGAGSYQLTFGKGTKLSVIP
Vbeta: QKPSRDICQRGTSLTIQCQVDSQVTMMFWYRQQPGQSLTLIATANQGSEATYESGFVIDKFPISRPNLTFSTLTVSNMSPEDSSIYLCSVGGAGVTDTQYFGPGTRLTVL
B6: TCR0022 (TCR, V domains shown)
Valpha: QSVAQPEDQVNVAEGNPLTVKCTYSVSGNPYLFWYVQYPNRGLQFLLKYITGDNLVKGSYGFEAEFNKSQTSFHLKKPSALVSDSALYFCAVRDDLVGAGSYQLTFGKGTKLSVIP
Vbeta: QKPSRDICQRGTSLTIQCQVDSQVTMMFWYRQQPGQSLTLIATANQGSEATYESGFVIDKFPISRPNLTFSTLTVSNMSPEDSSIYLCSVGGAGVTDTQYFGPGTRLTVL
B7: TCR0024 (TCR, V domains shown)
Valpha: QSVAQPEDQVNVAEGNPLTVKCTYSVSGNPYLFWYVQYPNRGLQFLLKYITGDNLVKGSYGFEAEFNKSQTSFHLKKPSALVSDSALYFCAVRDQALGAGSYQLTFGKGTKLSVIP
Vbeta: QKPSRDICQRGTSLTIQCQVDSQVTMMFWYRQQPGQSLTLIATANQGSEATYESGFVIDKFPISRPNLTFSTLTVSNMSPEDSSIYLCSVGGAGVTDTQYFGPGTRLTVL
B8: TCR0060 (TCR, V domains shown)
Valpha: QSVAQPEDQVNVAEGNPLTVKCTYSVSGNPYLFWYVQYPNRGLQFLLKYITGDNLVKGSYGFEAEFNKSQTSFHLKKPSALVSDSALYFCAVRELYSRGVKWQLTFGKGTKLSVIP
Vbeta: QKPSRDICQRGTSLTIQCQVDSQVTMMFWYRQQPGQSLTLIATANQGSEATYESGFVIDKFPISRPNLTFSTLTVSNMSPEDSSIYLCSVGGAGVTDTQYFGPGTRLTVL
B9: TCR0014 (TCR, V domains shown)
Valpha: QSVAQPEDQVNVAEGNPLTVKCTYSVSGNPYLFWYVQYPNRGLQFLLKYITGDNLVKGSYGFEAEFNKSQTSFHLKKPSALVSDSALYFCAVRDLFTGAGSYQLTFGKGTKLSVIP
Vbeta: QKPSRDICQRGTSLTIQCQVDSQVTMMFWYRQQPGQSLTLIATANQGSEATYESGFVIDKFPISRPNLTFSTLTVSNMSPEDSSIYLCSVGGAGVTDTQYFGPGTRLTVL
B10: TCR0020 (TCR, V domains shown)
Valpha: QSVAQPEDQVNVAEGNPLTVKCTYSVSGNPYLFWYVQYPNRGLQFLLKYITGDNLVKGSYGFEAEFNKSQTSFHLKKPSALVSDSALYFCAVRSSYEGAGRYQLTFGKGTKLSVIP
Vbeta: QKPSRDICQRGTSLTIQCQVDSQVTMMFWYRQQPGQSLTLIATANQGSEATYESGFVIDKFPISRPNLTFSTLTVSNMSPEDSSIYLCSVGGAGVTDTQYFGPGTRLTVL
B11: TCR0012 (TCR, V domains shown)
Valpha: QSVAQPEDQVNVAEGNPLTVKCTYSVSGNPYLFWYVQYPNRGLQFLLKYITGDNLVKGSYGFEAEFNKSQTSFHLKKPSALVSDSALYFCAVRGLLNGAGSYQLTFGKGTKLSVIP
Vbeta: QKPSRDICQRGTSLTIQCQVDSQVTMMFWYRQQPGQSLTLIATANQGSEATYESGFVIDKFPISRPNLTFSTLTVSNMSPEDSSIYLCSVGGAGVTDTQYFGPGTRLTVL
B12: TCR0032 (TCR, V domains shown)
Valpha: QSVAQPEDQVNVAEGNPLTVKCTYSVSGNPYLFWYVQYPNRGLQFLLKYITGDNLVKGSYGFEAEFNKSQTSFHLKKPSALVSDSALYFCAVRDLFCGAGSYQLTFGKGTKLSVIP
Vbeta: QKPSRDICQRGTSLTIQCQVDSQVTMMFWYRQQPGQSLTLIATANQGSEATYESGFVIDKFPISRPNLTFSTLTVSNMSPEDSSIYLCSVGGAGVTDTQYFGPGTRLTVL
B13: TCR0070 (TCR, V domains shown)
Valpha: QSVAQPEDQVNVAEGNPLTVKCTYSVSGNPYLFWYVQYPNRGLQFLLKYITGDNLVKGSYGFEAEFNKSQTSFHLKKPSALVSDSALYFCAVRELYSATVDYQLTFGKGTKLSVIP
Vbeta: QKPSRDICQRGTSLTIQCQVDSQVTMMFWYRQQPGQSLTLIATANQGSEATYESGFVIDKFPISRPNLTFSTLTVSNMSPEDSSIYLCSVGGAGVTDTQYFGPGTRLTVL
B14: TCR0030 (TCR, V domains shown)
Valpha: QSVAQPEDQVNVAEGNPLTVKCTYSVSGNPYLFWYVQYPNRGLQFLLKYITGDNLVKGSYGFEAEFNKSQTSFHLKKPSALVSDSALYFCAVRDSKAGAGSYQLTFGKGTKLSVIP
Vbeta: QKPSRDICQRGTSLTIQCQVDSQVTMMFWYRQQPGQSLTLIATANQGSEATYESGFVIDKFPISRPNLTFSTLTVSNMSPEDSSIYLCSVGGAGVTDTQYFGPGTRLTVL
B15: TCR0036 (TCR, V domains shown)
Valpha: QSVAQPEDQVNVAEGNPLTVKCTYSVSGNPYLFWYVQYPNRGLQFLLKYITGDNLVKGSYGFEAEFNKSQTSFHLKKPSALVSDSALYFCAVRDLTTGAGSYQLTFGKGTKLSVIP
Vbeta: QKPSRDICQRGTSLTIQCQVDSQVTMMFWYRQQPGQSLTLIATANQGSEATYESGFVIDKFPISRPNLTFSTLTVSNMSPEDSSIYLCSVGGAGVTDTQYFGPGTRLTVL
B16: TCR0066 (TCR, V domains shown)
Valpha: QSVAQPEDQVNVAEGNPLTVKCTYSVSGNPYLFWYVQYPNRGLQFLLKYITGDNLVKGSYGFEAEFNKSQTSFHLKKPSALVSDSALYFCAVRELYSALVTYQLTFGKGTKLSVIP
Vbeta: QKPSRDICQRGTSLTIQCQVDSQVTMMFWYRQQPGQSLTLIATANQGSEATYESGFVIDKFPISRPNLTFSTLTVSNMSPEDSSIYLCSVGGAGVTDTQYFGPGTRLTVL
B17: TCR0062 (TCR, V domains shown)
Valpha: QSVAQPEDQVNVAEGNPLTVKCTYSVSGNPYLFWYVQYPNRGLQFLLKYITGDNLVKGSYGFEAEFNKSQTSFHLKKPSALVSDSALYFCAVRELYSTTFGWQLTFGKGTKLSVIP
Vbeta: QKPSRDICQRGTSLTIQCQVDSQVTMMFWYRQQPGQSLTLIATANQGSEATYESGFVIDKFPISRPNLTFSTLTVSNMSPEDSSIYLCSVGGAGVTDTQYFGPGTRLTVL
B18: TCR0018 (TCR, V domains shown)
Valpha: QSVAQPEDQVNVAEGNPLTVKCTYSVSGNPYLFWYVQYPNRGLQFLLKYITGDNLVKGSYGFEAEFNKSQTSFHLKKPSALVSDSALYFCAVRDLSDGAGSYQLTFGKGTKLSVIP
Vbeta: QKPSRDICQRGTSLTIQCQVDSQVTMMFWYRQQPGQSLTLIATANQGSEATYESGFVIDKFPISRPNLTFSTLTVSNMSPEDSSIYLCSVGGAGVTDTQYFGPGTRLTVL

Data on 18 molecules can be found in US20200040358A1 (published 2020).

One assay addresses T1, NY-ESO-1 peptide on HLA-B*07:02. Nature of the assay: cytokine release.
As for B1, the binding result is reported as “no recognition”.

The next assay has as its target T2, NY-ESO-1 peptide on HLA-A*02:01. Nature of the assay: activation reporter or marker.
As for B1, the binding result is reported as “recognises”.

A further assay has as its target T3, NY-ESO-1 peptide on HLA-A*02:01. Nature of the assay: multimer staining.
With B1, the binding result is listed as “recognises”.
Same read-out and setting: the same measure for B2: “recognises”; for B3: “recognises”.
On the same count and under the same terms, the same measure for B4: “recognises”.
Regarding B5, the binding result is “recognises”.
The same measure, in the same setting: with B6 the entry was “recognises”; with B7, “recognises”; with B8, “recognises”.
As to B9, the binding result is on record as “recognises”.
The same measure, in the same setting: the same measure for B10: “recognises”; for B11: “recognises”.
The same measure, in the same setting: with B12 the entry was “recognises”; with B13, “recognises”; with B14, “recognises”.
In the case of B15, the binding result is reported as “recognises”.
The same measure, in the same setting: with B16 the entry was “recognises”; with B17, “recognises”; with B18, “recognises”.
